Reference: patent US20230174643A1

How the values were obtained:
Human DLL3 (human) = Human DLL3 (human) (UniProt Q9NYJ7); experiment: cell-based or functional assay
CD3 (human) = experiment: cell-based or functional assay

Chain of Human DLL3 (human) (Q9NYJ7 27-618 limits assumed): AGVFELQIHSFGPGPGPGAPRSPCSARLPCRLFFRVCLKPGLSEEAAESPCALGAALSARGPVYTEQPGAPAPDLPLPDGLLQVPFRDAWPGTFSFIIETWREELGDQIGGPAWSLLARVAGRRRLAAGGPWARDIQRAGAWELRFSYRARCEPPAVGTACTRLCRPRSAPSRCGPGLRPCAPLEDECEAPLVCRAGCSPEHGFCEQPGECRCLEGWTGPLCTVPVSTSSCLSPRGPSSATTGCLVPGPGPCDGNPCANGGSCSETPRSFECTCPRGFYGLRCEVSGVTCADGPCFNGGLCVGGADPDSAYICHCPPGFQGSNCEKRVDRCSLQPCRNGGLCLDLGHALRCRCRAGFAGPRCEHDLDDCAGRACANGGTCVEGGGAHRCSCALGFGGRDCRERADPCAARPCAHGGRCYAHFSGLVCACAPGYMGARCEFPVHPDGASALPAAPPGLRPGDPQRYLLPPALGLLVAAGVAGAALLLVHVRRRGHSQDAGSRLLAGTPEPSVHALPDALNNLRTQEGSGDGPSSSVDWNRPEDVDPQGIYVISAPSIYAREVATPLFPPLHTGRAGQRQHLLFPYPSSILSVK

EC90 of AMG 757-mediated CD69 upregulation (CD3 (human)): 4.6 ng/mL
Substance: AMG 757 (bispecific antibody)
EC50 of AMG 757-mediated cell killing in SHP-77 cells (Human DLL3 (human)): 2.8 ng/mL
EC90 of AMG 757-mediated cell killing in SHP-77 cells (Human DLL3 (human)): 5.7 ng/mL
in vitro EC90 for AMG 757-mediated cell killing (Human DLL3 (human)): 5.2 ng/mL
